Assay results from patent EP2225268B1.
One block for each molecule: values may come before it.

Assays:
[1] = target: Native NGAL purchased from Diagnostics Development (Uppsala, Sweden), non-reduced (UniProt P80188); assay: … sandwich CMIA, capture HYB 211-01, detection acridinium-HYB 211-02; NGAL 600 ng/mL
[2] = target: Wild-type recombinant human NGAL dimer calibrators treated with DTT (human) (UniProt P80188); assay: as above
[3] = target: Wild-type recombinant human NGAL dimer expressed in CHO cells (human) (UniProt P80188); assay: as above
[4] = target: Wild-type recombinant human NGAL monomer expressed in CHO cells (human) (UniProt P80188); assay: as above
[5] = target: Native NGAL (plus DTT - reduced) (UniProt P80188); assay: … sandwich CMIA, capture HYB 211-01, detection acridinium-HYB 211-02; same sample reduced with DTT
[6] = target: Wild-type recombinant human NGAL dimer calibrators treated with DTT (human) (UniProt P80188); assay: … sandwich CMIA, capture HYB 211-01, detection acridinium-HYB 211-02; curve fit with monomer calibrators; target 5 ng/mL
[7] = target: Wild-type recombinant human NGAL dimer expressed in CHO cells (human) (UniProt P80188); assay: as above
[8] = target: Wild-type recombinant human NGAL monomer expressed in CHO cells (human) (UniProt P80188); assay: as above
[9] = target: Wild-type recombinant human NGAL monomer expressed in CHO cells (human) (UniProt P80188); assay: … sandwich CMIA, capture HYB 211-01, detection acridinium-HYB 211-02; curve fit with monomer calibrators; target 250 ng/mL
[10] = target: Wild-type recombinant human NGAL dimer calibrators treated with DTT (human) (UniProt P80188); assay: … sandwich CMIA, capture HYB 211-01, detection acridinium-HYB 211-02; curve fit with monomer calibrators; target 1000 ng/mL
[11] = target: Wild-type recombinant human NGAL dimer expressed in CHO cells (human) (UniProt P80188); assay: as above
[12] = target: Wild-type recombinant human NGAL monomer expressed in CHO cells (human) (UniProt P80188); assay: as above
[13] = target: Wild-type recombinant human NGAL dimer calibrators treated with DTT (human) (UniProt P80188); assay: … sandwich CMIA, capture HYB 211-01, detection acridinium-HYB 211-02; DTT-treated against untreated dimer calibrator; target 50 ng/mL
[14] = target: Wild-type recombinant human NGAL dimer calibrators treated with DTT (human) (UniProt P80188); assay: … sandwich CMIA, capture HYB 211-01, detection acridinium-HYB 211-02; DTT-treated dimer calibrators against untreated dimer calibrators
[15] = target: Wild-type recombinant human NGAL dimer expressed in CHO cells (human) (UniProt P80188); assay: … sandwich CMIA, capture 1-2322-455, detection acridinium-1-903-430; NGAL 5 ng/mL
[16] = target: Wild-type recombinant human NGAL monomer expressed in CHO cells (human) (UniProt P80188); assay: as above
[17] = target: Wild-type recombinant human NGAL dimer calibrators with TCEP in the reaction mixture (human) (UniProt P80188); assay: … sandwich CMIA, capture 1-2322-455, detection acridinium-1-903-430; TCEP in reaction; NGAL 50 ng/mL
[18] = target: Wild-type recombinant human NGAL dimer calibrators with TCEP in the reaction mixture (human) (UniProt P80188); assay: … sandwich CMIA, capture 1-2322-455, detection acridinium-1-903-430; TCEP in reaction; NGAL 600 ng/mL
[19] = target: Wild-type recombinant human NGAL dimer expressed in CHO cells (human) (UniProt P80188); assay: … sandwich CMIA, capture 1-2322-455, detection acridinium-1-903-430; curve fit with monomer calibrators; target 5 ng/mL
[20] = target: Wild-type recombinant human NGAL monomer expressed in CHO cells (human) (UniProt P80188); assay: as above
[21] = target: Wild-type recombinant human NGAL dimer expressed in CHO cells (human) (UniProt P80188); assay: … sandwich CMIA, capture 1-2322-455, detection acridinium-1-903-430; curve fit with monomer calibrators; target 600 ng/mL
[22] = target: Wild-type recombinant human NGAL monomer expressed in CHO cells (human) (UniProt P80188); assay: as above
[23] = target: Wild-type recombinant human NGAL dimer calibrators with TCEP in the reaction mixture (human) (UniProt P80188); assay: … sandwich CMIA, capture 1-2322-455, detection acridinium-1-903-430; TCEP in reaction; curve fit with monomer calibrators; target 5 ng/mL
[24] = target: Wild-type recombinant human NGAL monomer expressed in CHO cells (human) (UniProt P80188); assay: … sandwich CMIA, capture 1-2322-455, detection acridinium-1-903-430; monomer calibrator plus TCEP; curve fit with monomer calibrators; target 5 ng/mL
[25] = target: Wild-type recombinant human NGAL monomer expressed in CHO cells (human) (UniProt P80188); assay: … sandwich CMIA, capture 1-2322-455, detection acridinium-1-903-430; monomer calibrator plus TCEP; curve fit with monomer calibrators; target 250 ng/mL

RLUs [1]: 1.07e+06 RLUs | RLUs [2]: 676000 RLUs | RLUs [3]: 282000 RLUs | RLUs [4]: 691000 RLUs | NGAL concentration detected [5]: 23.8 ng/mL | Curve Fit Results [6]: 4.7 ng/mL | Curve Fit Results [7]: 1.4 ng/mL | Curve Fit Results [8]: 5.1 ng/mL | Curve Fit Results [9]: 251 ng/mL | Curve Fit Results [10]: 924 ng/mL | Curve Fit Results [11]: 245 ng/mL | Curve Fit Results [12]: 1000 ng/mL | % Increase due to DTT [13]: 247% | average % increase of NGAL concentration after reduction of dimers [14]: 248%
Molecule: anti-NGAL antibody HYB 211-01 from AntibodyShop A/S, Gentofte, Denmark

RLUs [15]: 9120 RLUs | RLUs [16]: 29300 RLUs | RLUs [17]: 132000 RLUs | RLUs [18]: 989000 RLUs | Curve Fit Results [19]: 1.2 ng/mL | Curve Fit Results [20]: 4.7 ng/mL | Curve Fit Results [21]: 173 ng/mL | Curve Fit Results [22]: 591 ng/mL | Curve Fit Results [23]: 2.2 ng/mL | Curve Fit Results [24]: 4.6 ng/mL | Curve Fit Results [25]: 266 ng/mL
B1: antibody produced by murine hybridoma cell line 1-2322-455 having ATCC Accession No. PTA-8024 (antibody, V domains shown)
VH: EVQLVESGGGLVQPGGSLKLSCAASGFTFNNYYMSWVRQTPERRLEWVAYISSSGGSTYYSDSVRGRFTISRDTARNTLYLQMTSLKSEDTAMYYCARHFGDYSYFDYWGQGTTLTVSS
VL: DIQMTQSPASLSASVGETVTITCRASENFYSYLAWYQQKQGKSPQLLVYNAKTLAEGVPSRFSGSGSGTQFSLKINSLQPEDFGTYYCQHHYDIPLTFGAGTKLELKR
